From paper PMC12051055, “Spectroscopy and crystallography define carotenoid oxygenases as a new subclass of mononuclear non-heme Fe^II enzymes” (The Journal of Biological Chemistry, 2025)

Legend:
[1] = test system: Oc1cc(O)cc(/C=C/c2ccc(O)c(O)c2)c1; assay: X-ray crystal structure of complex, MCD; the value is the apparent Km from steady-state kinetics; format: biochemical, Neurospora crassa; conditions: Fe(II) active site
CC=Cc1ccc(O)c(OC)c1 = assay: steady-state kinetics of cleavage to vanillin by purified enzyme (apparent Km); format: biochemical, Neurospora crassa; conditions: Fe(II)
[2] = ~[…]° rotation of the β-ring toward the vacancy left from the absent Thr side chain
[3] = β-ring rotated ~[…]° away from the Val151 side chain

In the case of “CAO1 (Neurospora crassa carotenoid oxygenase 1) (Neurospora crassa OR74A; T151G)”, the Km ([1]; rotation of the β-ring toward the vacancy left from the absent Thr side chain) is reported as 0.110 ± 0.013 µM, the kcat [1, 2] is reported as 0.089 ± 0.003 s⁻¹ and the kcat/Km [1, 2] is reported as 810000 ± 100000 M⁻¹ s⁻¹.

Work on “CAO1 (Neurospora crassa carotenoid oxygenase 1) (Neurospora crassa OR74A; T151V)” yielded a Km (CC=Cc1ccc(O)c(OC)c1) of 93.92 ± 12.27 µM, a Km ([1]; β-ring rotated away from the Val151 side chain) of 0.027 ± 0.003 µM and a kcat [1, 3] of 1.04 ± 0.024 s⁻¹. For the same substance, the kcat/Km [1, 3] was 3.87e+07 ± 4.42e+06 M⁻¹ s⁻¹.
